{"source": "patent US20140371152A1", "about": "(DOSHISHA, published 2014)", "binders": {"B1": {"name": "#4 polypeptide (peptide)", "peptide": "Ac-MHLVICDCYCTTDICYCYSCTPN-NH2", "modifications": "cysteine pairing not given here", "notes": "Synthetic peptide found by screening against Amyloid β 1-9; used dissolved in DMSO; also called peptide name #4"}}, "target": "T1, Amyloid β 1-9 polypeptide corresponding to the N-terminal region of βCTF", "T1 construct": "Screening target and KD partner", "test": "dissociation constant against the Amyloid β 1-9 peptide; method not stated"}
{"binder": "B1", "values": [{"measurement": "Kd", "value": 2620, "unit": "nM"}]}
